Measurements reported in PMC2002144.

Target: epidermal growth factor receptor (EGFr) (human (endogenous in human breast tumours)) (UniProt P00533)
Assay: radioligand binding; labelled EGF on membrane protein of human breast tumours; multipoint Scatchard analyses and 2 point assays; saturation assay with 1 nM labelled EGF, 100 ug membrane protein, 100 nM unlabelled EGF for non-specific binding, volume 400 ul with buffer; constant of the high affinity site (2 binding sites found)

KD, high affinity site: 0.3 to 0.6 nM
Substance: epidermal growth factor (EGF), labelled (from UniProt P01132 977-1029) (ligand)
